In the supplement of paper PMC7125110:
± gives the standard error. Variants at the floor of the assay were thinned out.

B1: glmS ribozyme (parent)
chain: AUAAAAGCGCCAGAACUACAGAAAUGUAGUUGACGAGGAGGAGGUUUAUCGAAUUUUCGGCGGAUGCCUCCAAA

Experiments:
Conditions in all cases: with glucosamine-6-phosphate
[1] = variants of: B1; assay: self-cleavage kobs at 40 uM GlcN6P; higher = faster cleavage; RNA array
Method in brief: (§1)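 Over ~14 h at 37 °C, tiles were imaged as glucosamine-6-phosphate (40 μM to 10 mM) in HEPES/KCl/Mg(OAc)2 buffer flowed across sequenced MiSeq chips. The chips carried barcoded ribozyme variants transcribed in situ by E. coli RNA polymerase and tracked with a hybridised Cy3 probe. After normalisation to baseline and to non-cleaving reference variants, one- or two-exponential decay fits of per-tile medians gave kobs. kcat and KM followed from weighted Michaelis–Menten fits across concentrations.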

[2] = variants of: B1; assay: self-cleavage kobs at 640 uM GlcN6P; higher = faster cleavage; RNA array
Method in brief: as §1

[3] = variants of: B1; assay: self-cleavage kobs at 2500 uM GlcN6P; higher = faster cleavage; RNA array
Method in brief: as §1

[4] = variants of: B1; assay: self-cleavage kobs at 10000 uM GlcN6P; higher = faster cleavage; RNA array
Method in brief: as §1

[5] = variants of: B1; assay: self-cleavage kobs at 160 uM GlcN6P; higher = faster cleavage; RNA array
Method in brief: as §1

Variant	self-cleavage kobs at 40 uM GlcN6P [1]	self-cleavage kobs at 640 uM GlcN6P [2]	self-cleavage kobs at 2500 uM GlcN6P [3]	self-cleavage kobs at 10000 uM GlcN6P [4]	self-cleavage kobs at 160 uM GlcN6P [5]
A33G U65A	< 1e-05 s⁻¹	< 1e-05 s⁻¹	< 1e-05 s⁻¹	< 1e-05 s⁻¹	–
G7A C50G C68A	9.01e-05 ± 1.9e-05 s⁻¹	–	–	0.000134 ± 2.4e-05 s⁻¹	–
A6U U55G G62C C70A	< 1e-05 s⁻¹	–	–	–	–
A33C C71G	< 1e-05 s⁻¹	–	< 1e-05 s⁻¹	–	–
A33U U47C C67G	–	< 1e-05 s⁻¹	< 1e-05 s⁻¹	–	< 1e-05 s⁻¹
A14G U69C C70U	0.000104 ± 3.2e-05 s⁻¹	–	–	0.00316 ± 0.00074 s⁻¹	–
C11A G37C G60A	< 1e-05 s⁻¹	–	–	–	–
C16U A36U U55C U56C C58G	–	–	< 1e-05 s⁻¹	–	< 1e-05 s⁻¹
A15G C58G C68U	–	6.1e-05 ± 1.7e-05 s⁻¹	5.67e-05 ± 1.6e-05 s⁻¹	3.61e-05 ± 1.6e-05 s⁻¹	8.66e-05 ± 3.1e-05 s⁻¹
G13U A39C G44A	< 1e-05 s⁻¹	–	–	< 1e-05 s⁻¹	–
U2C G7C A42G U56A C61A	< 1e-05 s⁻¹	–	–	< 1e-05 s⁻¹	–
G13C G51C	< 1e-05 s⁻¹	< 1e-05 s⁻¹	< 1e-05 s⁻¹	< 1e-05 s⁻¹	–
A48U G63A	< 1e-05 s⁻¹	< 1e-05 s⁻¹	< 1e-05 s⁻¹	< 1e-05 s⁻¹	–
U30G A52U U54A	< 1e-05 s⁻¹	–	–	4.6e-05 ± 1.6e-05 s⁻¹	–
U49C C61G	< 1e-05 s⁻¹	–	–	< 1e-05 s⁻¹	–
C10G C11U G13C A36C G43C	–	< 1e-05 s⁻¹	< 1e-05 s⁻¹	–	< 1e-05 s⁻¹
A42U C58G	< 1e-05 s⁻¹	< 1e-05 s⁻¹	< 1e-05 s⁻¹	–	< 1e-05 s⁻¹
U30C A39U C68A	< 1e-05 s⁻¹	–	–	< 1e-05 s⁻¹	–
G35U G38C	< 1e-05 s⁻¹	< 1e-05 s⁻¹	< 1e-05 s⁻¹	< 1e-05 s⁻¹	–
C10A A48G	< 1e-05 s⁻¹	< 1e-05 s⁻¹	–	< 1e-05 s⁻¹	< 1e-05 s⁻¹
A39U U55C	0.000475 ± 4.6e-05 s⁻¹	0.00443 ± 0.00071 s⁻¹	0.00902 ± 0.002 s⁻¹	0.0244 ± 0.0038 s⁻¹	0.00102 ± 0.00013 s⁻¹
U57G G60U	< 1e-05 s⁻¹	< 1e-05 s⁻¹	< 1e-05 s⁻¹	–	< 1e-05 s⁻¹
G38C A39U A42G U54A C67G C70U	< 1e-05 s⁻¹	–	–	–	–
